In the assay the target is T1, β2 adrenergic receptor (β2AR), wild type, receptor part of the β2AR–G peptide SPASM FRET sensor (human, UniProt P07550).
T1 construct: β2 adrenergic receptor (β2AR), human; One polypeptide: Receptor-4×GSG-mCitrine-4×GSG-10 nm ER/K linker-4×GSG-mCerulean-4×GSG-G peptide; the receptor and the G peptide (m5 or m6) are tethered on the same chain; also called WT; wild-type β2AR–Gs peptide sensor; source: HEK 293T Flp-In T-Rex cells, transfected, crude membrane extracts; not shown: mCitrine, C-terminal, kept
The assay can be described thus: FRET or BRET; ∆FRET assay of β2AR SPASM sensors in membrane extracts; purified Nb6B9 added to quench the agonist-induced change in FRET. The following applies: one partner purified.

B1: Nanobody Nb6B9 (Nb6B9-2×GSG-SNAP tag-Flag-2×GSG-6×His) (VHH)
VHH: QVQLQESGGGLVQAGGSLRLSCAASGSIFALNIMGWYRQAPGKQRELVAAIHSGGTTNYANSVKGRFTISRDNAANTVYLQMNSLKPEDTAVYYCNVKDFGAIIYDYDYWGQGTQVTVSS
notes: Cloned into a pBiex1 backbone; source: E. coli JM109, purified (Ni-NTA, Superdex 200 gel filtration)
On to B1, for which the binding result is listed as “binds”.

The values above are taken from paper PMC10033409, “Autoregulation of GPCR signalling through the third intracellular loop” (Nature, 2023).
